Source: the supplement of paper PMC12042874
± gives the uncertainty stated by the source.

Assay: amyloid nucleation score (Sup35N fusion, yeast selection) (log enrichment); library NNK3; higher = more nucleation; inactive = no reads after selection
Summary of the method: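 Plasmid inserts were Illumina-sequenced at input and output from psi-negative yeast expressing Sup35N fused to peptides of 20 random codons. The yeast were induced with 100 μM copper sulfate for 24 hours and grown 7 days at 30°C on medium lacking adenine and uracil, and sequences with under 100 input reads were excluded. Nucleation score is the DiMSum log enrichment of output over input reads, centred on the mode score of non-aggregating sequences.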
For ILPPNWATSRVNAAGWFLGQ, the amyloid nucleation score was “inactive”. In the case of ILPSYDLFEVVWLVRAD, the amyloid nucleation score is reported as “inactive”. With ILPTAKKSKCGSHL the amyloid nucleation score was “inactive”. With ILRFGHPWDRRSK the amyloid nucleation score was “inactive”. With ILRPPKAA the amyloid nucleation score was “inactive”. Substance ILSIHSGFCWWMRGALNGKL has an amyloid nucleation score of 1.45 ± 0.14. For ILSSGLGKHTGLIIAYESAR, the amyloid nucleation score was “inactive”. For ILVAGTAV, the amyloid nucleation score was “inactive”. With ILVLTKRVCYGSLFRYAWAK the amyloid nucleation score was “inactive”. In the case of ILVVGALDLLCGVLTEYSCQ, the amyloid nucleation score is reported as 1.1 ± 0.1. In the case of ILWMVSMLRYIIEG, the amyloid nucleation score is reported as “inactive”. ILWSILVYLTLITVLCLCHF showed an amyloid nucleation score of 0.444 ± 0.26. In the case of ILYLRVYITFVLIGNLEGFR, the amyloid nucleation score is reported as “inactive”. For ILYSSYS, the amyloid nucleation score was “inactive”. For ILYWVYCSYSSNHDLYLFII, the amyloid nucleation score was “inactive”. In the case of IMGALLTYSRTTGRVNYRMW, the amyloid nucleation score is reported as “inactive”. In the case of IMICILHLC, the amyloid nucleation score is reported as “inactive”. For IMIGKVLFFGVATRMSVLRL, the amyloid nucleation score was “inactive”. In the case of IMLLVGAWTVSYNSCGSDAR, the amyloid nucleation score is reported as “inactive”. With IMQFGDFYIIQRERRSYVLW the amyloid nucleation score was 2.25 ± 0.087. With IMSSVVYECFKVLRHSVMSG the amyloid nucleation score was “inactive”. In the case of IMVRSIISGFRLMESRKLDS, the amyloid nucleation score is reported as “inactive”. In the case of INEWFGSKDFAETGHLEVRY, the amyloid nucleation score is reported as “inactive”. With INGSNNATCWVSLSIMKARI the amyloid nucleation score was “inactive”. With INIYSKELSNDGFSTLHYFM the amyloid nucleation score was “inactive”. INLGMP showed an amyloid nucleation score of -0.279 ± 0.52. In the case of INLHFDITDWANNDLENKGH, the amyloid nucleation score is reported as “inactive”. Substance INLLVSVKGWYYVAPTAWYE has an amyloid nucleation score of 1.16 ± 0.15. Work on INLVNTLFTIILMRSYRRTR yielded an amyloid nucleation score of 0.022 ± 0.31. For INTGMASGSSGTYVSAGIEA, the amyloid nucleation score was “inactive”. With INVPLALLSYGV the amyloid nucleation score was “inactive”. In the case of INVSLGHAGEGWVWLALHLR, the amyloid nucleation score is reported as “inactive”. With INYYFWTSGK the amyloid nucleation score was 0.731 ± 0.3. With IPERMRWVWEVTRAYNNYAW the amyloid nucleation score was “inactive”. For IPFGLANSRFNVFASVMSDC, the amyloid nucleation score was “inactive”. For IPFRLFQNDSEKMSWSCDVT, the amyloid nucleation score was “inactive”. With IPIVRTLNLLASTLTPLCR the amyloid nucleation score was “inactive”. For IPRVAWQSYILTSQ, the amyloid nucleation score was “inactive”. In the case of IPSNHSINRCYLDIWAQFLG, the amyloid nucleation score is reported as “inactive”. IQPCFIGIGVGYSRFVGRFF gave an amyloid nucleation score of 0.982 ± 0.22. Substance IQYRGYGYMNSIWYGVERFF has an amyloid nucleation score of 0.626 ± 0.28. In the case of IRASFEPWVLVRVFYSLCYG, the amyloid nucleation score is reported as “inactive”. IRCMSLYLHNGGVYRS showed an amyloid nucleation score of 1.72 ± 0.069. For IRERGLYEMNPYWCRGRKSM, the amyloid nucleation score was “inactive”. For IRGASYPSATNRHAAMLVWM, the amyloid nucleation score was “inactive”. In the case of IRHRTIWSYGSFY, the amyloid nucleation score is reported as “inactive”. With IRLKQQDFEGSGKLFNGGHL the amyloid nucleation score was “inactive”. For IRLTVWDVNRDCR, the amyloid nucleation score was “inactive”. For IRLYFQYFLLSG, the amyloid nucleation score was 2.35 ± 0.063. With IRRCPGMKVCWLYLKC the amyloid nucleation score was “inactive”. With IRSCIIRSFTYMLGLH the amyloid nucleation score was “inactive”. In the case of IRSDTVSTARPGNLTNC, the amyloid nucleation score is reported as “inactive”. With IRSMGRPTRKLCEPGFSALE the amyloid nucleation score was “inactive”. In the case of IRVSN, the amyloid nucleation score is reported as “inactive”. For IRYCGHIRTGCFRLISDLF, the amyloid nucleation score was “inactive”. In the case of IRYYFRHLG, the amyloid nucleation score is reported as -0.203 ± 0.36. In the case of ISAGNTRSTYRLGSWDTSRE, the amyloid nucleation score is reported as “inactive”. For ISCGYSYGTRRFS, the amyloid nucleation score was “inactive”. ISCRMYLCCQVLTSSCTWSH gave an amyloid nucleation score of 1.34 ± 0.11. For ISDLTHFRYRDVPNLLVRTK, the amyloid nucleation score was “inactive”. In the case of ISEVLLCAFVVYIMRKR, the amyloid nucleation score is reported as 0.953 ± 0.11. With ISGEQRYSKCRT the amyloid nucleation score was “inactive”. In the case of ISGIHITSELRRGTPERCSH, the amyloid nucleation score is reported as “inactive”. With ISGTFACQNSTFFSGYREAI the amyloid nucleation score was “inactive”. For ISINLIVRCRRLHTPHLPVK, the amyloid nucleation score was “inactive”. With ISLFGIMWIRLLHLRHESKA the amyloid nucleation score was “inactive”. In the case of ISLGCLYLFCYVTGCICSVG, the amyloid nucleation score is reported as 1.49 ± 0.094. With ISMDRYHNTRHSVNRILLTC the amyloid nucleation score was “inactive”. For ISPCVPKSAWSIFRIAI, the amyloid nucleation score was “inactive”. With ISRDGVRCEVWMWPWPREPA the amyloid nucleation score was “inactive”. For ISSYFNMCDLCVDVRHTYRR, the amyloid nucleation score was “inactive”. With ISTVFLVISSAGTCPSHDKE the amyloid nucleation score was 1.32 ± 0.095. With ISVRFLCNYCRRVYIRRCAV the amyloid nucleation score was “inactive”. For ISWTYVRYYGHKKCCLFYHF, the amyloid nucleation score was “inactive”. For ISWWAMCACSARKVRF, the amyloid nucleation score was “inactive”. For ITDYMIQF, the amyloid nucleation score was -0.66 ± 0.7. In the case of ITGGTPCGITTVWQKGAMG, the amyloid nucleation score is reported as “inactive”. In the case of ITGMVPWSSLESSRPGSLKR, the amyloid nucleation score is reported as “inactive”. For ITMCIIHHRHLMATSFM, the amyloid nucleation score was 0.752 ± 0.18. With ITMCRDFLLAPWPCLLQPSH the amyloid nucleation score was “inactive”. ITNIFFFHSTLLRSCRASGN showed an amyloid nucleation score of 2.47 ± 0.063. For ITNVRSVRFLYSSTYYHIVL, the amyloid nucleation score was 1.83 ± 0.11. In the case of ITSEIMAIWFDICKAWDLCV, the amyloid nucleation score is reported as “inactive”. With ITTFVVMCDLVVLVC the amyloid nucleation score was “inactive”. In the case of ITVELTCGSGYYGTMTENQV, the amyloid nucleation score is reported as “inactive”. With IVAGVMADNDIRQDCAWKFK the amyloid nucleation score was 1.34 ± 0.12. With IVDHNIMI the amyloid nucleation score was 0.718 ± 0.3. IVIYLSHDKNLIQVRSSCEG showed an amyloid nucleation score of 2.59 ± 0.056. For IVLNKSILYADTCPLFPTMR, the amyloid nucleation score was 0.655 ± 0.11. For IVRDFLAGPIKHSTFEVIDF, the amyloid nucleation score was “inactive”. With IVRFNSLHYFWETDKTI the amyloid nucleation score was “inactive”. For IVRWGSQSGVYRMPIEAWKW, the amyloid nucleation score was “inactive”. With IVSTWG the amyloid nucleation score was “inactive”. For IVSYSGRNRDAHLKSS, the amyloid nucleation score was “inactive”. For IVTHSMSSAHINRMNSRQ, the amyloid nucleation score was “inactive”. In the case of IVVCAQTLHSLGPRPIEPTQ, the amyloid nucleation score is reported as “inactive”. With IVVNR the amyloid nucleation score was “inactive”. For IVVNT, the amyloid nucleation score was “inactive”. For IVWTVFNALQPLGNALRVSV, the amyloid nucleation score was “inactive”. In the case of IVYILRFRTSMLC, the amyloid nucleation score is reported as “inactive”. In the case of IVYWCLVRNLEKLCCSYFTG, the amyloid nucleation score is reported as “inactive”. For IWGPTADKSRSVIGSVIKQG, the amyloid nucleation score was “inactive”. For IWISYRMVSFEASKQSVVL, the amyloid nucleation score was “inactive”. In the case of IWKRLYPFTVRQVSCTIMCD, the amyloid nucleation score is reported as “inactive”. In the case of IWNRLESFHCHILMVTFHVN, the amyloid nucleation score is reported as “inactive”. In the case of IWPWYCKHNIFVKYHRLVER, the amyloid nucleation score is reported as “inactive”. With IWRLCNVPICPSLRGAGHYS the amyloid nucleation score was “inactive”. With IWSIQLSFKIASSCNFATG the amyloid nucleation score was “inactive”. For IWVSYWAGFVRSFSRVCNLV, the amyloid nucleation score was “inactive”. For IWWILIDP, the amyloid nucleation score was “inactive”. For IYGGCIFYRMSQCARMDTGE, the amyloid nucleation score was “inactive”. In the case of IYIFGFQTVCNSLIGGLSIA, the amyloid nucleation score is reported as “inactive”. For IYLYYGRTYSTFLWEV, the amyloid nucleation score was 0.762 ± 0.12. For IYRQDCGFSPKNRKMVSGAA, the amyloid nucleation score was “inactive”. For IYRTPSADDLSRDAYIGFYR, the amyloid nucleation score was “inactive”.
